Test results published in patent US20190352422A1 (PCM TARGETECH, published 2019).

B1: Mouse Zt/g4 (antibody, from another filing, V domains shown)
VH: EVQLQQSGAELVKPGASVKLSCTTSGFNIIDTYIHWVNQKPDQGLEWIGRIDPADGNRKSDPKFQVKATITVDTSSNTAYLQLSSLTSGDTAVYYCARGYGNLNAMDSWGQGTSVTVSS
VL: DIQMNQSPSSLSASLGDTITITCHASQNINVWLNWYQQKPGNIPKLLIYKASNLHTGVPSRFSGSGSGTGFTLTISSLQPEDIATYYCQQGQSYPLTFGGGTKLEIK
B2: Humanized PCM5B14 H2L4 (IgG1/κ, designated as H5B14) (antibody, V domains shown)
VH: QVQLVQSGAEVKKPGATVKISCKVSGYTFTDYHMDWVQQAPGKGLEWMGDINPNNGGAIYNQKFKGRVTITADTSTDTAYMELSSLRSEDTAVYYCARSHYDYAGGAWFAYWGQGTLVTVSR
VL: EIVMTQSPGTLSLSPGERATLSCKSSQSLLFSGNQKNYLAWYQQKPGQAPRLLIYWASTRASGIPDRFSGSGSGTDFTLTISRLEPEDFAVYYCQQYYSFPRTFGQGTKLEIKR
notes: also called H5B14H2L4; Humanized 5B14

Legend:
human RON receptor [1] = molecular target: T1, human RON receptor (human, UniProt Q04912 25-1400); test: cell-based or functional assay
human RON receptor [2] = molecular target: T1, human RON receptor; test: flow cytometry on HT29 cells, FITC-coupled anti-human IgG1 secondary
Procedure: Colon cancer HT29 cell line expressing ˜19,000 RON molecules per cell were used as the model. Mouse PCM5B14 was used as the positive control. Individual H5B14 clones at different concentrations were incubated with cells followed by addition of FITC-coupled anti-human IgG1 antibody. Fluorescence intensities from individual samples were analyzed using the BD flow cytometer. Results in FIG. 2 are the dose-dependent specific binding of individual H5B14s. […] Results in Table 1 show the individual values reflecting the binding affinity and sensitivity of individual H5B14 clones to human RON receptor.

Binder	Internalization efficacy of cell surface RON (EC50, hours), Breast T-47D (human RON receptor [1]) [h]	Internalization efficacy of cell surface RON (EC50, hours), Colon HT-29 (human RON receptor [1]) [h]	Internalization efficacy of cell surface RON (EC50, hours), Lung H358 (human RON receptor [1]) [h]	Internalization efficacy of cell surface RON (EC50, hours), Pancreatic L3.6p1 (human RON receptor [1]) [h]	EC50 (human RON receptor [2]) [µg/mL]	LogEC50 (human RON receptor [2])
B1	23.5	11	7.47	14.1	–	–
B2	8.26	5.33	7.94	8.17	2.22	0.346 log(µg/ml)
